Literature values as cited in publication PMC9441699 (Frontiers in Cellular and Infection Microbiology, 2022).

Test system: pseudotyped SARS-CoV

B1: Lactoferrin: antiviral milk protein (protein, UniProt P02788 20-710, looked up)
Lactotransferrin: GRRRSVQWCAVSQPEATKCFQWQRNMRKVRGPPVSCIKRDSPIQCIQAIAENRADAVTLDGGFIYEAGLAPYKLRPVAAEVYGTERQPRTHYYAVAVVKKGGSFQLNELQGLKSCHTGLRRTAGWNVPIGTLRPFLNWTGPPEPIEAAVARFFSASCVPGADKGQFPNLCRLCAGTGENKCAFSSQEPYFSYSGAFKCLRDGAGDVAFIRESTVFEDLSDEAERDEYELLCPDNTRKPVDKFKDCHLARVPSHAVVARSVNGKEDAIWNLLRQAQEKFGKDKSPKFQLFGSPSGQKDLLFKDSAIGFSRVPPRIDSGLYLGSGYFTAIQNLRKSEEEVAARRARVVWCAVGEQELRKCNQWSGLSEGSVTCSSASTTEDCIALVLKGEADAMSLDGGYVYTAGKCGLVPVLAENYKSQQSSDPDPNCVDRPVEGYLAVAVVRRSDTSLTWNSVKGKKSCHTAVDRTAGWNIPMGLLFNQTGSCKFDEYFSQSCAPGSDPRSNLCALCIGDEQGENKCVPNSNERYYGYTGAFRCLAENAGDVAFVKDVTVLQNTDGNNNEAWAKDLKLADFALLCLDGKRKPVTEARSCHLAMAPNHAVVSRMDKVERLKQVLLHQQAKFGRNGSDCPDKFCLFQSETKNLLFNDNTECLARLHGKTTYEKYLGPQYVAGITNLKKCSTSPLLEACEFLRK
In the case of B1, the “inhibition of pseudotyped SARS-CoV” value is given as 50%.
